According to patent publication US9289492B2, “Collecting ovarian cancer stem cells from ovarian cancer cells” (The General Hospital Corporation, priority 2007, dated 2016):
Where two headings read alike, the source gives them in different places.

Columns and labels:
4306 cells = test: Hoechst 33342 side population flow cytometry with verapamil, 4306; format: cell-based, mouse; conditions: 4306, verapamil 25-50 μg/ml, Hoechst 33342 flow cytometry
Protocol: (§1) Flow cytometry was performed in the Department of Pathology and Center for Regenerative Medicine Flow Cytometry Laboratory according to their published protocols (36). Mouse and human ovarian cancer SP sorting and immunophenotyping were performed as described in Supporting Methods, which is published as supporting information on the PNAS web site.
(§2) SP cells were identified and electronically gated on a Digital Vantage cell sorter (Becton Dickinson) after excitation of the Hoechst dye with 150 mW of 350 nm UV light. SP fluorescence emissions were directed toward a 610-nm dichroic filter and captured simultaneously through both a blue (450-nm) band-pass and a red (675-nm) long-pass filter on a linearly amplified fluorescence scale.

MOVCAR 7 cells = test: Hoechst 33342 side population flow cytometry with verapamil, MOVCAR 7; format: cell-based, mouse; conditions: MOVCAR 7, verapamil 25-50 μg/ml, Hoechst 33342 flow cytometry
Protocol: as §1, §2

MOVCAR 7 NSP cells = test: MTT proliferation assay, MOVCAR 7 NSP cells; format: cell-based, mouse; conditions: for inhibition at 0.004 µM: Mus musculus, read-out: inhibition (MTT growth inhibition)
Protocol: (§3) MTT assay was used to assess proliferation inhibition. MOVCAR 7 and 4306 cells were harvested, sorted for SPs and NSPs, and plated in the inner wells of 96-well plates at 1,000 cells per well in 200 μl of medium per well. […] At day 5 or 7 of incubation, cell viability was quantified by measuring mitochondrial activity (38) on an ELISA plate reader at an absorbance of 550 nm to generate an OD proportional to the relative abundance of live cells in a given well.
(§4) Statistical Analysis. In MTT assays, MIS-, doxorubicin-, and paclitaxel-treated and untreated samples were analyzed by using the univariant two-tailed Student t test, with P ≦0.05conferring statistical significance. All experiments were performed in triplicate. In ovarian somatic stem cell studies, all p-values were calculated with the use of two-tailed student's t-test. Differences with p-values less than 0.05 were considered significant.

MOVCAR 7 SP cells = test: MTT proliferation assay, MOVCAR 7 SP cells; format: cell-based, mouse; conditions: for inhibition at 0.004 µM: Mus musculus, 4 nM drug, compared with vehicle-treated controls, read-out: inhibition (MTT growth inhibition)
Protocol: as §3, §4

BCRP1 transporter = target: T1, BCRP1 transporter (Homo sapiens, UniProt Q9UNQ0); conditions: reference 23; cited from earlier work
T1 sequence (Q9UNQ0 1-655): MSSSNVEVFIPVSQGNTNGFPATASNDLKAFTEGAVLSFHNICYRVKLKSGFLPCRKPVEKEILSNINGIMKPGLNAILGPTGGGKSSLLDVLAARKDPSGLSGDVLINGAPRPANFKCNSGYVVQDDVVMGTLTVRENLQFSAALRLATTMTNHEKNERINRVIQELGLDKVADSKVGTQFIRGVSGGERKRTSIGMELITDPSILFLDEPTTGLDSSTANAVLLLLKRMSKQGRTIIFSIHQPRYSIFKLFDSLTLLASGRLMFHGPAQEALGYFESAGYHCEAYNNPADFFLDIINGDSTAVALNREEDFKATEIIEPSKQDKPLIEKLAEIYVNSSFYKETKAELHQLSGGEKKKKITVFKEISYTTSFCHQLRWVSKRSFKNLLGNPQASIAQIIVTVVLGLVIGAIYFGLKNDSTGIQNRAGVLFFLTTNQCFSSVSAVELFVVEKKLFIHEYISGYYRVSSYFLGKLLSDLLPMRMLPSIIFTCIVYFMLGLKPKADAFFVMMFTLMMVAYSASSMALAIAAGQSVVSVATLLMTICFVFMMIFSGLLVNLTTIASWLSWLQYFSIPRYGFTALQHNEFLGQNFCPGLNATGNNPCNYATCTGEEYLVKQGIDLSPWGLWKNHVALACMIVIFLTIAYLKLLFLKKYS

[1] = tested on: human anchorage-independent Mullerian tumors; conditions: soft agarose, reference 34; cited from earlier work
OVCAR 8 cells = conditions: references 25, 35; cited from earlier work
MOVCAR 8 cells = conditions: references 25, 35; cited from earlier work
MOVCAR 7 [2] = conditions: in vivo, reference 25; cited from earlier work
MOVCAR 7 [3] = conditions: in vitro, reference 25; cited from earlier work
4306 SP cells = test: MTT proliferation assay, 4306 SP cells; format: cell-based, mouse
Protocol: as §3, §4

[4] = Organ culture bioassay for MIS; conditions: purified recombinant human MIS
Protocol: The human MIS gene was transfected into CHO cells, amplified, purified, and maintained in a dedicated facility in the Pediatric Surgical Research Laboratories for use in this study as described in ref.39. MIS levels were measured by using human MIS-specific ELISA (40). MIS was purified by a combination of lectin affinity chromatography and FPLC anion-exchange chromatography (39).

[5] = 4 nM drug, versus vehicle-treated controls

Question: Which results are given for `COc1ccc(CCN(C)CCCC(C#N)(c2ccc(OC)c(OC)c2)C(C)C)cc1OC` (stereo not drawn) [Verapamil, verapamil]?
Answer: elimination of the SP (4306 cells): effectively eliminated the SP; elimination of the SP (MOVCAR 7 cells): effectively eliminated the SP

Question: What does the source list for `COc1cccc2c1C(=O)c1c(O)c3c(c(O)c1C2=O)C[C@@](O)(C(=O)CO)C[C@@H]3O[C@H]1C[C@H](N)[C@H](O)[C@H](C)O1` [doxorubicin]?
Answer: inhibition at 0.004 µM (MOVCAR 7 NSP cells; [5]): 81%; inhibition at 0.004 µM (MOVCAR 7 SP cells; MOVCAR 7 SP cells): 30%; substrate of the BCRP1 transporter (BCRP1 transporter): is a substrate

Question: For `CC(=O)O[C@H]1C(=O)[C@@]2(C)[C@H]([C@H](OC(=O)c3ccccc3)[C@]3(O)C[C@H](OC(=O)[C@H](O)[C@@H](NC(=O)c4ccccc4)c4ccccc4)C(C)=C1C3(C)C)[C@]1(OC(C)=O)CO[C@@H]1C[C@@H]2O` [paclitaxel], which “inhibition (MTT growth inhibition)” value (MOVCAR 7 NSP cells; [5]) is on record?
Answer: 88%

Question: And the inhibition at 0.004 µM (MOVCAR 7 NSP cells; [5])?
Answer: 83%

Question: And the inhibition at 0.004 µM (MOVCAR 7 SP cells; MOVCAR 7 SP cells)?
Answer: 85%

B1: MIS: Recombinant human Mullerian Inhibiting Substance protein (SEQ ID NO: 16), produced in CHO cells and purified (protein, listed as Homo sapiens)
chain: MRDLPLTSLALVLSALGALLGTEALRAEEPAVGTSGLIFREDLDWPPGSPQEPLCLVALGGDSNGSSSPLRVVGALSAYEQAFLGAVQRARWGPRDLATFGVCNTGDRQAALPSLRRLGAWLRDPGGQRLVVLHLEEVTWEPTPSLRFQEPPPGGAGPPELALLVLYPGPGPEVTVTRAGLPGAQSLCPSRDTRYLVLAVDRPAGAWRGSGLALTLQPRGEDSRLSTARLQALLFGDDHRCFTRMTPALLLLPRSEPAPLPAHGQLDTVPFPPPRPSAELEESPPSADPFLETLTRLVRALRVPPARASAPRLALDPDALAGFPQGLVNLSDPAALERLLDGEEPLLLLLRPTAATTGDPAPLHDPTSAPWATALARRVAAELQAAAAELRSLPGLPPATAPLLARLLALCPGGPGGLGDPLRALLLLKALQGLRVEWRGRDPRGPGRAQRSAGATAADGPCALRELSVDLRAERSVLIPETYQANNCQGVCGWPQSDRNPRYGNHVVLLLKMQARGAALARPPCCVPTAYAGKLLISLSEERISAHHVPNMVATECGCR
Question: What does the source list for B1?
Answer: inhibition of anchorage-independent tumors [1]: inhibits; inhibition of OVCAR 8 cells (OVCAR 8 cells): inhibits; inhibition by MIS (MTT) (MOVCAR 7 NSP cells; first sort, 10 μg/ml MIS, versus vehicle): 93%; inhibition of MOVCAR 8 cells (MOVCAR 8 cells): inhibits; inhibition by MIS (MTT) (MOVCAR 7 SP cells; MOVCAR 7 SP cells after sort 2, 10 μg/ml MIS): 93%; inhibition by MIS (MTT) (MOVCAR 7 SP cells; MOVCAR 7 SP cells after sort 3, 10 μg/ml MIS): 94%; inhibition by MIS (MTT) (MOVCAR 7 SP cells; MOVCAR 7 SP cells, first sort, 10 μg/ml MIS, versus vehicle): 86%; inhibition of MOVCAR 7 (MOVCAR 7 [2]): inhibit; inhibition of MOVCAR 7 (MOVCAR 7 [3]): inhibit; inhibition by MIS (MTT) (4306 SP cells; 4306 SP cells after sort 2, 10 μg/ml MIS): 60%; inhibition by MIS (MTT) (4306 SP cells; 4306 SP cells after sort 3, 10 μg/ml MIS, not significant): 17%; inhibition by MIS (MTT) (4306 SP cells; 4306 SP cells, first sort, 10 μg/ml MIS, vs. vehicle control): 37%; regression in organ culture bioassay [4]: causes regression
